Series [1] deals with the molecule itself. Description: X-ray crystal structures (pdb 5uuo, 5uun); two copies of the protein per asymmetric unit. From the text: Diffraction data were obtained at the GM/CA beam-line at Argonne National Laboratory with an Eiger 16M detector (Casanas et al. 2016). Data were collected on the ammonium acetate and ammonium sulfate crystal forms using 1.033 Å (for 1.45 Å resolution) or 0.7749 Å (for 1.25 Å resolution) X-rays, respectively. Diffraction data were reduced using XDS (Kabsch 2010). Both crystals belonged to space group P2₁2₁2₁ with a predicted solvent content of 60%. The structure was solved by molecular replacement with Phaser (McCoy et al. 2007) in the Phenix suite (Adams et al. 2010), using a search model based on PDB ID 3C8E:A (ecYghU (Stourman et al. 2011)) modified with phenix.sculptor (Bunkóczi et al. 2011), based on primary sequence alignment. […] Phenix.refine (Afonine et al. 2012) and COOT (Emsley et al. 2004) were alternatively used to refine the structure and fit the model to electron density maps.

Series [2] deals with T1, Saro_2873 polypeptide made by cell-free synthesis in its native form.
T1 chain: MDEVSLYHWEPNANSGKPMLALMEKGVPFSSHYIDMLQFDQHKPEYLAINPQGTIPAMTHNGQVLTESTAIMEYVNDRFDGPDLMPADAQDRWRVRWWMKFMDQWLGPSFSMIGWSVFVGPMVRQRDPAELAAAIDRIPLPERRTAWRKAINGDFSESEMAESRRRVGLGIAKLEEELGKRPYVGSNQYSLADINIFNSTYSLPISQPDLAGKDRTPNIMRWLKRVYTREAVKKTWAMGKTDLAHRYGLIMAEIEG

The target in series [3] is T2, Saro_2873 S15A (subunit of BaeA variants 3:S15A and 2:S14A/3:S15A) (Novosphingobium aromaticivorans).
T2 chain: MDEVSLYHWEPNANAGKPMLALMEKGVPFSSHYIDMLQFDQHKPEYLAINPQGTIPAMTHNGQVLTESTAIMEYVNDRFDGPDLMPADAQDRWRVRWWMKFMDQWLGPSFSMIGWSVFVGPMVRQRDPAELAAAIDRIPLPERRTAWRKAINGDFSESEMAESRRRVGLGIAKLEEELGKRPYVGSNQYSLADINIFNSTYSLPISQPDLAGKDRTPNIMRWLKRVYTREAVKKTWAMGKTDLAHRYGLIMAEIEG
Description: gel permeation chromatography.

Series [4] deals with T3, Saro_2873 N14A (subunit of BaeA variant 3:N14A) (Novosphingobium aromaticivorans).
T3 construct: This subunit is untagged; the tag is on Saro_2872
T3 chain: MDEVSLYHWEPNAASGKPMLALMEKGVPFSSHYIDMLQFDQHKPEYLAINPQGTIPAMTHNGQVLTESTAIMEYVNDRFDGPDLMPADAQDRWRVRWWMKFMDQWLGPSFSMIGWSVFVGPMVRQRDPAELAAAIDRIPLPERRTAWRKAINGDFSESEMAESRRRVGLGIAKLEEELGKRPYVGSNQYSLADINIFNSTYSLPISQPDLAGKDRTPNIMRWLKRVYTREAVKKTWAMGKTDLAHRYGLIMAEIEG
Description: gel permeation chromatography.

Series [5] addresses T4, Saro_2873 polypeptide from Novosphingobium aromaticivorans (subunit of BaeA), co-expressed with Saro_2872 in … (Novosphingobium aromaticivorans).
T4 construct: Co-expressed with Saro_2872; also called Saro_2873 subunit; second polypeptide of BaeA
T4 chain: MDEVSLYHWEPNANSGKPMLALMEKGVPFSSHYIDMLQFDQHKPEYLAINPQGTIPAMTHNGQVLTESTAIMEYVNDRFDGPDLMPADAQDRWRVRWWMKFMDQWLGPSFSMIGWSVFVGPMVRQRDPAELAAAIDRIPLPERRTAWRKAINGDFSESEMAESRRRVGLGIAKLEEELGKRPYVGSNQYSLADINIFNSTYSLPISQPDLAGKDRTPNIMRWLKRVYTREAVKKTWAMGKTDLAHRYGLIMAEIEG
Description: gel permeation chromatography.

Here are results for three molecules from US20210095265A1 (WISCONSIN ALUMNI RESEARCH FOUNDATION, published 2021).

B1: recombinant NaGSTNu (Nu-class glutathione-S-transferase of Novosphingobium aromaticivorans DSM 12444, Saro_2595), one subunit (enzyme)
chain: SAIAGMSSEYVPPKVWKWDKANGGAFASVNRPVAGPTSERELPVGKHPFQVYSLGTPNGQKATIMLEELLQLGFSEAEYDAWLIKIFEGDQFTSGFVDINPNSKIPAMVDRSGPEPFRVFESGAILMHLAEKFGVFLPTSGPARAECLSWLFWQVGSAPFIGGGFGHFYNYAPIKIEYAIDRYAMETKRLFDVANRRLAESRYLAGDEYTIADLATYTWFGNIYRGEAYGEAATFLSMHEYEHVGRWVGEIDARPGVLRGRLVNSSKGLAERHDASDFDALPPESLQAIVKGF
notes: also called Saro_2595 product; pdb 5uuo
As to B1, the binding result in series [1] is given as “binds”.

B2: Saro_2872 polypeptide from Novosphingobium aromaticivorans (subunit of BaeA), co-expressed with Saro_2873 in E. coli (enzyme)
chain: MSALLYHGEPNGASLTVLAALAETGLDIECRRIDLLAGERHSLPGIVDPVALDLSIEGEGPVLVIDGEAMTESVFLAQYLDEAAGGVGLQPTDAYARWEMMMWCRQITERLSPAAALLGNLATSQSAIAAIPAEDFAILAARIVSDDLRERWQALNDDAVNAAQVADSETKVAAAVDRCEKQLGDGREWLMGTFSIADLVTYSWLAGMEPLRPAAFADAPLVKAWLARTAARPCVQAALARATISEPLRAWAPGPEINRWG
notes: Co-expressed with Saro_2873 from one pVP302K vector; In the H2872 construct Saro_2872 lacks its native start codon; also called Saro_2872 subunit; first polypeptide of BaeA
For the molecule B2, the “conversion of racemic MPHPV into GS-HPV and guaiacol (HPLC)” value in series [2] was “half of the MPHPV was converted into GS-HPV and guaiacol”. Further, the binding result in series [3] and in series [4] was “binds” throughout.

B3: Saro_2872 S14A (subunit of BaeA variants 2:S14A and 2:S14A/3:S15A) (enzyme)
chain: MSALLYHGEPNGAALTVLAALAETGLDIECRRIDLLAGERHSLPGIVDPVALDLSIEGEGPVLVIDGEAMTESVFLAQYLDEAAGGVGLQPTDAYARWEMMMWCRQITERLSPAAALLGNLATSQSAIAAIPAEDFAILAARIVSDDLRERWQALNDDAVNAAQVADSETKVAAAVDRCEKQLGDGREWLMGTFSIADLVTYSWLAGMEPLRPAAFADAPLVKAWLARTAARPCVQAALARATISEPLRAWAPGPEINRWG
notes: The N-terminal His8-tag and Tev site are on this subunit, and its native start codon is missing; also called H2872(S14A)
Take B3: the binding result in series [5] and in series [3] was “binds” each time.
